# Assay results: patent publication US20110262366A1
# No end group written: not given here.
# Assays:
# [1] = biological target: endothelial cell receptor on HAEC (human aortic endothelial cells); test: competition, 25 µM free TKPPR against 1% BRU-114 microbubbles (competitor) on HAEC, static
# [2] = biological target: endothelial cell receptor on HAEC (human aortic endothelial cells); test: competition, 200 µM free TKPPR against 1% BRU-114 microbubbles (competitor) on HAEC, static
# [3] = biological target: endothelial cell receptor on HAEC (human aortic endothelial cells); test: competition, 10 µM free TKPPR against 10% BRU-114 microbubbles (competitor) on HAEC, static
# [4] = biological target: endothelial cell receptor on HAEC (human aortic endothelial cells); test: competition, 100 µM free TKPPR against 5% DPPE-GTKPPR microbubbles (competitor) on HAEC, static
# [5] = biological target: endothelial cell receptor on HAEC (human aortic endothelial cells); test: competition, 10 µM free TKPPR against 1% DPPE-GTKPPR microbubbles (competitor) on HAEC, static
# [6] = biological target: endothelial cell receptor on HAEC (human aortic endothelial cells); test: competition, 50 µM free TKPPR against 10% BRU-114 microbubbles (competitor) on HAEC, static
# VEGF receptors on HUVECs = test: competition with ^125I-VEGF on HUVECs
# [7] = biological target: endothelial cell receptor on HAEC (human aortic endothelial cells); test: competition, 200 µM free TKPPR against 5% BRU-114 microbubbles (competitor) on HAEC, static
# [8] = biological target: endothelial cell receptor on HAEC (human aortic endothelial cells); test: competition, free TKPPR 100 µM (head prints 100 µmol) against 1% DPPE-GTKPPR microbubbles (competitor) on HAEC, static
# [9] = biological target: endothelial cell receptor on HAEC (human aortic endothelial cells); test: competition, 10 µM free TKPPR against 1% BRU-114 microbubbles (competitor) on HAEC, static
# [10] = biological target: endothelial cell receptor on HAEC (human aortic endothelial cells); test: competition, 10 µM free TKPPR against 1% BRU-292 microbubbles (competitor) on HAEC, static
# [11] = biological target: endothelial cell receptor on HAEC (human aortic endothelial cells); test: competition, free TKPPR 10 µM (head prints 10 µmol) against 5% DPPE-GTKPPR microbubbles (competitor) on HAEC, static
# [12] = biological target: endothelial cell receptor on HAEC (human aortic endothelial cells); test: competition, 25 µM free TKPPR against 1% BRU-114 microbubbles (competitor) on HAEC, static; remark: listed apart in the source
# [13] = biological target: endothelial cell receptor on HAEC (human aortic endothelial cells); test: competition against 1% DPPE-GTKPPR microbubbles (competitor) on HAEC, static
# [14] = biological target: endothelial cell receptor on HAEC (human aortic endothelial cells); test: competition, free TKPPR 10 µM (head prints 10 µmol) against 1% DPPE-GTKPPR microbubbles (competitor) on HAEC, static
# [15] = biological target: endothelial cell receptor on HAEC (human aortic endothelial cells); test: competition, 25 µM free TKPPR against 1% BRU-292 microbubbles (competitor) on HAEC, static
# [16] = biological target: endothelial cell receptor on HAEC (human aortic endothelial cells); test: competition, 50 µM free TKPPR against 1% DPPE-GTKPPR microbubbles (competitor) on HAEC, static
# [17] = biological target: endothelial cell receptor on HAEC (human aortic endothelial cells); test: competition, 100 µM free TKPPR against 1% DPPE-GTKPPR microbubbles (competitor) on HAEC, static
# [18] = biological target: endothelial cell receptor on HAEC (human aortic endothelial cells); test: competition, 25 µM free TKPPR against 2% BRU-114 microbubbles (competitor) on HAEC, static
# [19] = biological target: endothelial cell receptor on HAEC (human aortic endothelial cells); test: competition, 2.5 µM free TKPPR against 1% BRU-292 microbubbles (competitor) on HAEC, static
# [20] = biological target: endothelial cell receptor on HAEC (human aortic endothelial cells); test: competition, 200 µM free TKPPR against 10% BRU-114 microbubbles (competitor) on HAEC, static
# [21] = biological target: endothelial cell receptor on HAEC (human aortic endothelial cells); test: competition, 500 µM free TKPPR against TKPPR-beads (competitor) on HAEC, static, n = 11
# [22] = biological target: endothelial cell receptor on HAEC (human aortic endothelial cells); test: competition, 200 µM free TKPPR against TKPPR-beads (competitor) on HAEC, static, n = 11
# [23] = biological target: endothelial cell receptor on HAEC (human aortic endothelial cells); test: competition, 10 µM free TKPPR against TKPPR-beads (competitor) on HAEC, static, n = 11
# [24] = biological target: endothelial cell receptor on HAEC (human aortic endothelial cells); test: competition, 10 µM free TKPPR against 5% BRU-114 microbubbles (competitor) on HAEC, static
# [25] = biological target: endothelial cell receptor on HAEC (human aortic endothelial cells); test: competition, 100 µM free TKPPR against 5% BRU-114 microbubbles (competitor) on HAEC, static
# [26] = biological target: endothelial cell receptor on HAEC (human aortic endothelial cells); test: competition, 50 µM free TKPPR against 1% BRU-114 microbubbles (competitor) on HAEC, static
# [27] = biological target: endothelial cell receptor on HAEC (human aortic endothelial cells); test: competition, 100 µM free TKPPR against 1% BRU-114 microbubbles (competitor) on HAEC, static
# [28] = biological target: endothelial cell receptor on HAEC (human aortic endothelial cells); test: competition, 50 µM free TKPPR against TKPPR-beads (competitor) on HAEC, static, n = 11
# [29] = biological target: endothelial cell receptor on HAEC (human aortic endothelial cells); test: competition, 50 µM free TKPPR against 1% BRU-114 microbubbles (competitor) on HAEC, static; remark: listed apart in the source
# [30] = biological target: endothelial cell receptor on HAEC (human aortic endothelial cells); test: competition, 5 µM free TKPPR against 1% DPPE-GTKPPR microbubbles (competitor) on HAEC, static
# [31] = biological target: endothelial cell receptor on HAEC (human aortic endothelial cells); test: competition, 50 µM free TKPPR against 1% BRU-292 microbubbles (competitor) on HAEC, static
# [32] = biological target: endothelial cell receptor on HAEC (human aortic endothelial cells); test: competition, 25 µM free TKPPR against 1% DPPE-GTKPPR microbubbles (competitor) on HAEC, static
binder,measurement,setting,value
TKPPR-OH [TKPPR-OH (L-threonyl-L-lysyl-L-prolyl-L-prolyl-L-arginine)],Bubbles Bound in presence of competitor,[1],75 bubbles
same,Bubbles Bound in presence of competitor,[2],4 bubbles
same,Bubbles Bound in presence of competitor,[3],1090 bubbles
same,HAEC bubbles bound in presence of competitor,[4],58 bubbles
same,Average % Inhibition,[5],79.6%
same,Bubbles Bound in presence of competitor,[6],857 bubbles
same,IC50,VEGF receptors on HUVECs,250 µM
same,Bubbles Bound in presence of competitor,[7],13 bubbles
same,Bubbles Bound in presence of competitor,[8],5 bubbles
same,Bubbles Bound in presence of competitor,[9],535 bubbles
same,Bubbles Bound in presence of competitor,[10],833 bubbles
same,Bubbles Bound in presence of competitor,[11],865 bubbles
same,Bubbles Bound in presence of competitor,[12],106 bubbles
same,% inhibition of bubble binding,[13],82.7%
same,Bubbles Bound in presence of competitor,[14],96 bubbles
same,Bubbles Bound in presence of competitor,[15],718 bubbles
same,Average % Inhibition,[16],92.7%
same,Average % Inhibition,[17],93.7%
same,Bubbles Bound % (of control binding),[18],16 % of control
same,Bubbles Bound in presence of competitor,[19],888 bubbles
same,Bubbles Bound in presence of competitor,[20],66 bubbles
same,% Inhibition,[21],70.6%
same,% Inhibition,[22],72.2%
same,% Inhibition,[23],30.8%
same,Bubbles Bound in presence of competitor,[24],1340 bubbles
same,Bubbles Bound in presence of competitor,[25],12 bubbles
same,Bubbles Bound in presence of competitor,[26],56 bubbles
same,Bubbles Bound in presence of competitor,[27],17 bubbles
same,% Inhibition,[28],50.5%
same,Bubbles Bound in presence of competitor,[29],9 bubbles
same,Average % Inhibition,[30],45.7%
same,Bubbles Bound in presence of competitor,[31],462 bubbles
same,Average % Inhibition,[32],82%
